In IntAct's records for PubMed 17853893:

B1: Programmed cell death 6-interacting protein (Homo sapiens), Q8WUM4 (parent)
chain: MATFISVQLKKTSEVDLAKPLVKFIQQTYPSGGEEQAQYCRAAEELSKLRRAAVGRPLDKHEGALETLLRYYDQICSIEPKFPFSENQICLTFTWKDAFDKGSLFGGSVKLALASLGYEKSCVLFNCAALASQIAAEQNLDNDEGLKIAAKHYQFASGAFLHIKETVLSALSREPTVDISPDTVGTLSLIMLAQAQEVFFLKATRDKMKDAIIAKLANQAADYFGDAFKQCQYKDTLPKEVFPVLAAKHCIMQANAEYHQSILAKQQKKFGEEIARLQHAAELIKTVASRYDEYVNVKDFSDKINRALAAAKKDNDFIYHDRVPDLKDLDPIGKATLVKSTPVNVPISQKFTDLFEKMVPVSVQQSLAAYNQRKADLVNRSIAQMREATTLANGVLASLNLPAAIEDVSGDTVPQSILTKSRSVIEQGGIQTVDQLIKELPELLQRNREILDESLRLLDEEEATDNDLRAKFKERWQRTPSNELYKPLRAEGTNFRTVLDKAVQADGQVKECYQSHRDTIVLLCKPEPELNAAIPSANPAKTMQGSEVVNVLKSLLSNLDEVKKEREGLENDLKSVNFDMTSKFLTALAQDGVINEEALSVTELDRVYGGLTTKVQESLKKQEGLLKNIQVSHQEFSKMKQSNNEANLREEVLKNLATAYDNFVELVANLKEGTKFYNELTEILVRFQNKCSDIVFARKTERDELLKDLQQSIAREPSAPSIPTPAYQSSPAGGHAPTPPTPAPRTMPPTKPQPPARPPPPVLPANRAPSATAPSPVGAGTAAPAPSQTPGSAPPPQAQGPPYPTYPGYPGYCQMPMPMGYNPYAYGQYNMPYPPVYHQSPGQAPYPGPQQPSYPFPQPPQQSYYPQQ
partner: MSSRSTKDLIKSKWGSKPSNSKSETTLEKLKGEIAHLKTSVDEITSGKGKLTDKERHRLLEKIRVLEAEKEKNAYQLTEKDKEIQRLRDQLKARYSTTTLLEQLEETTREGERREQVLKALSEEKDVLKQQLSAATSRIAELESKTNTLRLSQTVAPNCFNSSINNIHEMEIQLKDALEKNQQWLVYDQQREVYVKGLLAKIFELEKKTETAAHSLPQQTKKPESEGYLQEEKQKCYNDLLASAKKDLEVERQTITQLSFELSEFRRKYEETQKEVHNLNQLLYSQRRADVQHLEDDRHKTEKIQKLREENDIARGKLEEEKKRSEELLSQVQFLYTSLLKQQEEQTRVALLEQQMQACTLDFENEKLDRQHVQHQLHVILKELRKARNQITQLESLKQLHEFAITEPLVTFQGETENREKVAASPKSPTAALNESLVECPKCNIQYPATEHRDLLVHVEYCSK

Variants of: B1
Conditions: with cep55_human CEP55, Q53EZ4

For G800A;P801A;P802A, which “effect of a mutation on the interaction” value is on record?
Its value is “disrupting interaction strength”.
